From US6399747 (Amgen, dated 2002) come the findings set out here.

Assay [1] has as its target T1, mPAL (amino acids 11 to 648) expressed in 293T cells from pcDNA3.1-mPAL (mouse, UniProt Q9Z179 11-648).
T1 sequence: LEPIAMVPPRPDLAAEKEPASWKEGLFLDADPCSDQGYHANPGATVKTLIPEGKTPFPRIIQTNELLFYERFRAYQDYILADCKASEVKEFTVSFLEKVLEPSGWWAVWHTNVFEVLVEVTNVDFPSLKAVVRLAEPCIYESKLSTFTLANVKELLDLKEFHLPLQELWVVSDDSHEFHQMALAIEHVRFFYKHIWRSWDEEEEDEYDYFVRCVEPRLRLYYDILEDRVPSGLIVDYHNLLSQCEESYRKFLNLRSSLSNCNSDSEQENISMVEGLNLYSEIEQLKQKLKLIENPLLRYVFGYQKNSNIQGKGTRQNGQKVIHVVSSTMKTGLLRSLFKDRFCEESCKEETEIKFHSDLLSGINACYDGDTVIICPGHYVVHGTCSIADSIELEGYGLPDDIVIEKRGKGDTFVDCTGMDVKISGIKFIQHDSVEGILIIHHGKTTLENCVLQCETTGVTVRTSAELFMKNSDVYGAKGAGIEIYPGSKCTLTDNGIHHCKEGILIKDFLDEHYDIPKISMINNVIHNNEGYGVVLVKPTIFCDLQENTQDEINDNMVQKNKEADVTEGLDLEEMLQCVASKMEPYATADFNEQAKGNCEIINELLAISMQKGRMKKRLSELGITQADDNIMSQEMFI
The assay is described as follows: GST pull-down from 293T-mPAL lysate, anti-mPAL immunoblot. The procedure: To examine the specificity of the mPAL-Shc SH2 interaction, a series of GST-SH2 fusion proteins generated from several signal transduction molecules were tested for their ability to precipitate mPAL. A panel of GST-SH2 fusion proteins generated from several signal transduction molecules (Shc PTB domain, Blaikie et al., *J. Biol. Chem.* 269:23031–32034(1994), Shc SH2 domain, Pellici et al., *Cell* 70:93–104 (1992), Grb2 SH2 domain, Rozakis-Adcock et al., *Nature* 360:689–692 (1992), Vav SH2 domain Margolis et al., *Nature* 356: 71–74 (1992), N-terminal SH2 domain of ras-GAP, N-terminal SH2 domain (p85-N) and C-terminal SH2 domain (p85-C) of p85 subunit of PI-3 kinase, N-terminal SH2 domain (PLCγ-N), and C-terminal SH2 domain (PLCγ-C) of phospholipase C-γ1 Anderson et al., *Science* 250:979–982 (1992), Ellis et al., *Mol. Cell Biol.* 12:991–997(1992), and Nck SH2 domain, Lehman et al., *Nucl. Acids Res.* 18:1048 (1990), were immobilized on glutathione-Sepharose beads.
Background: Immunoblotting shows a protein as a band on a membrane.

The target in assay [2] is T2, mPAL cDNA clone from the yeast two-hybrid screen, fused to the GAL4 transcription activation domain (yeast; mouse, UniProt Q9Z179 16-668).
T2 construct: Eleven clones were isolated (3 from T-cell, 8 from embryo library); As an in-frame fusion it may start at residue 11; also called GAL4-cDNA fusion; GAL4-TA fusion
T2 sequence: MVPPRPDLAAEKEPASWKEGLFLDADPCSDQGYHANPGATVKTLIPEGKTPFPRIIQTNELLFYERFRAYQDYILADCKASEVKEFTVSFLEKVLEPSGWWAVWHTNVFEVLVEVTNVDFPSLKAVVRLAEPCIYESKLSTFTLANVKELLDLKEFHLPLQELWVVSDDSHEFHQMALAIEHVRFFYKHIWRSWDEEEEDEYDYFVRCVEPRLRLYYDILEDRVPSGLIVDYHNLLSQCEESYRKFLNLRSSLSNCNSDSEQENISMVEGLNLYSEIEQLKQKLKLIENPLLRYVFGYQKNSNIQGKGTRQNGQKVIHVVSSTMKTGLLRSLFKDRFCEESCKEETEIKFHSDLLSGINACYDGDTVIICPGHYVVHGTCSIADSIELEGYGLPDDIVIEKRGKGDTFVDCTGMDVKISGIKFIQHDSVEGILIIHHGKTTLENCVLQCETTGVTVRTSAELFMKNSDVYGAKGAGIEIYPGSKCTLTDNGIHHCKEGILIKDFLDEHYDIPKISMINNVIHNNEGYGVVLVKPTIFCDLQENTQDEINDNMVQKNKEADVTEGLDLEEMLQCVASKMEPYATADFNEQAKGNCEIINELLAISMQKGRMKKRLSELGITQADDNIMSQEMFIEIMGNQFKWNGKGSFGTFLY
Nature of the assay: yeast two-hybrid.

B1: GST-Nck SH2 (amino acids 281-377 of human Nck) (other, UniProt P16333 281-377, looked up)
chain: PWYYGKVTRHQAEMALNERGHEGDFLIRDSESSPNDFSVSLKAQGKNKHFKVQLKETVYCIGQRKFSTMEELVEHYKKAPIFTSEQGEKLYLVKHLS
notes: range 281-377; not shown: glutathione S-transferase (GST)
As to B1, the binding result in assay [1] is “no binding”.

B2: PTB domain of p52 Shc (yeast two-hybrid construct) (other, UniProt P29353-2 1-209, looked up)
chain: MNKLSGGGGRRTRVEGGQLGGEEWTRHGSFVNKPTRGWLHPNDKVMGPGVSYLVRYMGCVEVLQSMRALDFNTRTQVTREAISLVCEAVPGAKGATRRRKPCSRPLSSILGRSNLKFAGMPITLTVSTSSLNLMAADCKQIIANHHMQSISFASGGDPDTAEYVAYVAKDPVNQRACHILECPEGLAQDVISTIGQAFELRFKQYLRNP
notes: domain: PTB; Construct is not described
As to B2, the binding result in assay [2] is “no binding”.

B3: CH1 domain of p52 Shc (yeast two-hybrid construct) (other, UniProt P29353-2 230-377, looked up)
chain: EEEEPPDHQYYNDFPGKEPPLGGVVDMRLREGAAPGAARPTAPNAQTPSHLGATLPVGQPVGGDPEVRKQMPPPPPCPGRELFDDPSYVNVQNLDKARQAVGGAGPPNPAINGSAPRDLFDMKPFEDALRVPPPPQSVSMAEQLRGEP
notes: domain: CH1; Construct is not described
Take B3: the binding result in assay [2] is “no binding”.
